Measured values: paper PMC12402178

Tests used:
[1] = target: microtubules polymerised from porcine brain tubulin (GMPCPP-stabilised seeds, dynamic GDP lattice, or taxol-stabilised) (porcine) (UniProt P02550); assay: FRAP (TIRF microscopy); anillin-GFP bleached on single GDP (dynamic) microtubules; single exponential fit, median of fits; 26 C
[2] = target: microtubules polymerised from porcine brain tubulin (GMPCPP-stabilised seeds, dynamic GDP lattice, or taxol-stabilised) (porcine) (UniProt P02550); assay: FRAP (TIRF microscopy); anillin-GFP bleached on single GMPCPP microtubules; single exponential fit, median of fits

Chain of Anillin-GFP (full-length human anillin, isoform 2, 1087 amino acids) (Q9NQW6 other isoform, or with tags, fused parts or gaps): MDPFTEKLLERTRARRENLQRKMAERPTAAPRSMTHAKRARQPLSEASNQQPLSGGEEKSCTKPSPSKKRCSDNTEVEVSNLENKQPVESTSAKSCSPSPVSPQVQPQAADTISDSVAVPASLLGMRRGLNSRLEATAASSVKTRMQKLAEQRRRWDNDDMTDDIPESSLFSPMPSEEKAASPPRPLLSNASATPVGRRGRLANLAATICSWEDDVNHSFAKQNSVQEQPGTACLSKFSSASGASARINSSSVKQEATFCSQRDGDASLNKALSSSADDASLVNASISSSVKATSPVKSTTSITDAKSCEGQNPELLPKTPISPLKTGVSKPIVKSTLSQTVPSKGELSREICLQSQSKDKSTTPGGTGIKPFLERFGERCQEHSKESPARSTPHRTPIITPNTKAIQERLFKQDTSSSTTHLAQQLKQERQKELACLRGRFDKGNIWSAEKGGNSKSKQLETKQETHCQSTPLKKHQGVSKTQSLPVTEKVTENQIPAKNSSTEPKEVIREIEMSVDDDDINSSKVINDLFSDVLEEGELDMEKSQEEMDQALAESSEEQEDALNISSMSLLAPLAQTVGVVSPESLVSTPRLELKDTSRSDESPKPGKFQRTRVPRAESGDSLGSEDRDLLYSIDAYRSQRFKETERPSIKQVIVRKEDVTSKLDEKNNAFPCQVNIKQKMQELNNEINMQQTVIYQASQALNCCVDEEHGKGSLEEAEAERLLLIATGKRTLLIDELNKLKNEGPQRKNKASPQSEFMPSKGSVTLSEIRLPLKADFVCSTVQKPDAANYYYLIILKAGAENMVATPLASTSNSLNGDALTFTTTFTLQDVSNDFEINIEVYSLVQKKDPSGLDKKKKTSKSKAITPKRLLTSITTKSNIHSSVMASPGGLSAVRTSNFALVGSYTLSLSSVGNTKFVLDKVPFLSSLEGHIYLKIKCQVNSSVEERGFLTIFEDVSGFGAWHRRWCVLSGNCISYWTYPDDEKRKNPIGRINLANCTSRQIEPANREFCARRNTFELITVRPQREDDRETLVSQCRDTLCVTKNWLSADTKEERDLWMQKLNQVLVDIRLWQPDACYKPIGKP

koff [1]: 1.07 s⁻¹ | koff [2]: 0.26 s⁻¹
Substance: Anillin-GFP (full-length human anillin, isoform 2, 1087 amino acids) (from UniProt Q9NQW6-2 1-1087) (natural protein)
